# Assay results as given in article PMC2928861.
# Tests used:
# [1] = target: ribosome-nascent chain complex (RNC) of Sec61β, TMD inside the ribosomal tunnel (UniProt P60468); experiment: co-IP
# [2] = target: ribosomes purified under native conditions from reticulocyte lysate; experiment: co-sedimentation
# Sequence of UniProt P60468 (P60468 whole entry, looked up, one chain of several): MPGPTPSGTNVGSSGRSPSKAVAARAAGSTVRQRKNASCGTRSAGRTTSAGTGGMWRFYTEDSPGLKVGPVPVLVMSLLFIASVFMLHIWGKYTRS
Substance,occupancy of RNCs [1],percent ribosome-bound [2]
"Bat3 complex (Bat3, TRC35 and Ubl4A) (from UniProt P46379;Q7L5D6;P11441)",27%,
"SRP (signal recognition particle), followed by its subunit SRP54 (from UniProt P61011 1-504) (complex)",7%,30 to 50%
TRC40 (from UniProt O43681 1-348) (natural protein),,< 1%
